PMC2288786 (BMC Structural Biology, 2008)

Columns and labels:
Conditions in all cases: both partners purified
[1] = target: T1, calmodulin (recombinant, from the expression construct pETCM with vertebrate CaM cDNA) ( (vertebrate CaM cDNA), UniProt P0DP23 2-149); assay: ITC; 1.0 mM MBP peptide injected into 0.10 mM CaM; 50 mM HEPES pH 7.5, 20 mM CaCl2; +25°C; fits: one site (peaks 2-7) and 4 sequential sites (peaks 2-20)
[2] = target: T1, calmodulin (recombinant, from the …); assay: ITC; 1.0 mM MBP peptide injected into 0.10 mM CaM; 50 mM HEPES pH 7.5, 20 mM CaCl2; +30°C; fits: one site (peaks 2-7) and 4 sequential sites (peaks 2-20)
[3] = target: T1, calmodulin (recombinant, from the …); assay: ITC; 1.0 mM MBP peptide injected into 0.10 mM CaM; 50 mM HEPES pH 7.5, 20 mM CaCl2; +35°C; fits: one site (peaks 2-7) and 4 sequential sites (peaks 2-20)
[4] = target: T1, calmodulin (recombinant, from the …); assay: small-angle X-ray scattering (SAXS); CaM in solution with and without a 5-fold molar excess of the peptide, 5.4 to 140.0 mg/ml; X33 beamline, DESY
[5] = target: T1, calmodulin (recombinant, from the …); assay: ITC; 1.0 mM MBP peptide injected into 0.10 mM CaM; 50 mM HEPES pH 7.5, 20 mM CaCl2; +40°C; fits: one site (peaks 2-7) and 4 sequential sites (peaks 2-20)
[6] = target: T1, calmodulin (recombinant, from the …); assay: SPR; Biacore 3000; CaM immobilised by amine coupling (4000 RU); peptide 2.5-200 μM injected; 10 mM HEPES pH 7.5, 150 mM NaCl, 4 mM CaCl2, 0.005% P-20; 30 μl/min; two-state conformational change model; also 2-site model on equilibrium RU

Kd [1]: 3.4 µM
Kd of the first binding event (4-site model) [1]: 1 µM
dH [1]: -1.47 ± 0.13 kcal/mol
dH of the first binding event (4-site model) [1]: -1.44 ± 0.04 kcal/mol
stoichiometry N [1]: 0.83 ± 0.23
Kd [2]: 2.3 µM
Kd of the first binding event (4-site model) [2]: 1.1 µM
dH [2]: -2.11 ± 0.06 kcal/mol
dH of the first binding event (4-site model) [2]: -2.07 ± 0.02 kcal/mol
stoichiometry N [2]: 0.67 ± 0.02
Kd [3]: 1.9 µM
Kd of the first binding event (4-site model) [3]: 1 µM
dH [3]: -2.38 ± 0.1 kcal/mol
dH of the first binding event (4-site model) [3]: -2.34 ± 0.03 kcal/mol
stoichiometry N [3]: 0.63 ± 0.02
stoichiometry N [4]: 1
Kd [5]: 25.9 µM
Kd of the first binding event (4-site model) [5]: 1.7 µM
dH [5]: -1.09 ± 0.97 kcal/mol
dH of the first binding event (4-site model) [5]: -0.73 ± 0.05 kcal/mol
stoichiometry N [5]: 0.7 ± 0.17
Kd [6]: 58 µM
Kd of the high-affinity binding event (2-site model, equilibrium RU) [6]: ~10 µM
Kd of the low-affinity binding event (2-site model, equilibrium RU) [6]: ~1000 µM
B1: MBP peptide HKGFKGVDAQGTLSKIFKL, residues 138-156 of the human MBP 18.5 kDa isoform (peptide)
peptide: HKGFKGVDAQGTLSKIFKL
notes: myelin basic protein, human, 18.5-kDa isoform, residues 138-156; also called the peptide; myelin peptide; source: synthetic peptide, 95% purity; bought: Genemed Synthesis
